Measured values published in patent US6713247B1, “Human CNS cell lines and methods of use therefor” (Signal Pharmaceuticials, Inc., priority 1996, dated 2004).

Legend:
[1] = system: clone C10; experiment: Effects of EGF and PDGF on proliferation and survival, clone C10; type: cell-based, human
Description: (§1) EGF and PDGF Enhance Proliferation Rate and Cell Survival. To facilitate the expansion of the human CNS clones, we identified factors that increase the proliferation rate and/or cell survival. To examine the effects of EGF and PDGF on the proliferation and survival of the human CNS clones, 40 ng/mL EGF, 20 ng/mL PDGF or both were added to the standard growth medium, which already contained FGF-2 and 50% CM, and total cell number and BrdU uptake and incorporation were assessed as described above. For clone C2, EGF or PDGF addition increased the total cell number (FIG. 11A) by approximately 2-fold. This increase in cell number was due to enhanced cell viability (decreased cell death), since there were only slight increases in proliferation rate (assessed by BrdU uptake and incorporation, FIG. 11B). […] In the case of clone C10, EGF (but not PDGF) addition increased the total cell number (FIG. 12A) by approximately 40%. […] This increase in cell number was due, at least in part, to enhanced proliferation rates; BrdU uptake and incorporation increase about 2-fold with EGF or EGF+PDGF addition (FIG. 12B), and doubling times (based on cell counts as a function of days in vitro, data not shown) decreased from 3 days (no EGF or PDGF addition) to 2 days (EGF+PDGF addition). […]

[2] = system: clone C2; experiment: Effects of EGF and PDGF on proliferation and survival, clone C2; type: cell-based, human; conditions: added to growth medium with FGF-2 and 50% CM, EGF 40 ng/mL, PDGF 20 ng/mL
Description: as §1

B1: EGF: human recombinant epidermal growth factor (protein, UniProt P01133 23-1207, looked up)
Pro-epidermal growth factor: PQHWSCPEGTLAGNGNSTCVGPAPFLIFSHGNSIFRIDTEGTNYEQLVVDAGVSVIMDFHYNEKRIYWVDLERQLLQRVFLNGSRQERVCNIEKNVSGMAINWINEEVIWSNQQEGIITVTDMKGNNSHILLSALKYPANVAVDPVERFIFWSSEVAGSLYRADLDGVGVKALLETSEKITAVSLDVLDKRLFWIQYNREGSNSLICSCDYDGGSVHISKHPTQHNLFAMSLFGDRIFYSTWKMKTIWIANKHTGKDMVRINLHSSFVPLGELKVVHPLAQPKAEDDTWEPEQKLCKLRKGNCSSTVCGQDLQSHLCMCAEGYALSRDRKYCEDVNECAFWNHGCTLGCKNTPGSYYCTCPVGFVLLPDGKRCHQLVSCPRNVSECSHDCVLTSEGPLCFCPEGSVLERDGKTCSGCSSPDNGGCSQLCVPLSPVSWECDCFPGYDLQLDEKSCAASGPQPFLLFANSQDIRHMHFDGTDYGTLLSQQMGMVYALDHDPVENKIYFAHTALKWIERANMDGSQRERLIEEGVDVPEGLAVDWIGRRFYWTDRGKSLIGRSDLNGKRSKIITKENISQPRGIAVHPMAKRLFWTDTGINPRIESSSLQGLGRLVIASSDLIWPSGITIDFLTDKLYWCDAKQSVIEMANLDGSKRRRLTQNDVGHPFAVAVFEDYVWFSDWAMPSVMRVNKRTGKDRVRLQGSMLKPSSLVVVHPLAKPGADPCLYQNGGCEHICKKRLGTAWCSCREGFMKASDGKTCLALDGHQLLAGGEVDLKNQVTPLDILSKTRVSEDNITESQHMLVAEIMVSDQDDCAPVGCSMYARCISEGEDATCQCLKGFAGDGKLCSDIDECEMGVPVCPPASSKCINTEGGYVCRCSEGYQGDGIHCLDIDECQLGEHSCGENASCTNTEGGYTCMCAGRLSEPGLICPDSTPPPHLREDDHHYSVRNSDSECPLSHDGYCLHDGVCMYIEALDKYACNCVVGYIGERCQYRDLKWWELRHAGHGQQQKVIVVAVCVVVLVMLLLLSLWGAHYYRTQKLLSKNPKNPYEESSRDVRSRRPADTEDGMSSCPQPWFVVIKEHQDLKNGGQPVAGEDGQAADGSMQPTSWRQEPQLCGMGTEQGCWIPVSSDKGSCPQVMERSFHMPSYGTQTLEGGVEKPHSLLSANPLWQQRALDPPHQMELTQ
modifications: Pro-epidermal growth factor
With B1 the “increase in BrdU uptake and incorporation” value [1] was “approximately 2 fold”, the “increase in total cell number” value ([1]; EGF 40 ng/mL added to growth medium with FGF-2 and 50% CM) was “approximately 40%” and the “increase in total cell number” value [2] was “approximately 2 fold”.
